This data set concerns the target T1, His-BaeR (Acinetobacter baumannii ATCC 17978) (UniProt A0ABX6CJ55).
T1 sequence: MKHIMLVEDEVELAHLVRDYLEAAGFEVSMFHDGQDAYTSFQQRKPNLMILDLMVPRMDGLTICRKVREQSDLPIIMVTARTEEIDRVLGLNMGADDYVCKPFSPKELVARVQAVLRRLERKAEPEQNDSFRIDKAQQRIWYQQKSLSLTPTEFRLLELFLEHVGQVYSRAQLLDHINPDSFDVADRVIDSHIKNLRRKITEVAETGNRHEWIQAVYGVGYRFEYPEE
As to the kind of experiment: EMSA. A general note: Mobility shift assays separate free from complexed probe on a gel.

On to “TTTCTGAGCAGCAGCAGCTTGCTGTTTCTCATCGGAGCCTTTGCTACAACCAACAAGCGCGATACTTGTTGCTAATGCGCAAGCAGTAAGGGCTGGTGCCCAAAGCTTAGCCGACATCATTGTTCCACCTCGTTTAGATAAAAT (double strand) [adeI promoter region (144 bp)]”, for which the binding result is listed as “no binding”. For “GCCTTCACGTTTTAAATAATTTTCAATAATGTCGCCAATATCGTAGTCATCTTCTACCACAAGAATAACTTTATCTTGGCAATCAAAAGAAAAAGAATGATCAAACATAGAAAATCTGGCTATAGAAAGTGCTTCAACTCATCATACGCTAAATTATCCGTATTTCTCCACACTTACTCCACACTTTAGTGATTATCCCTACACACTCATCAAAAATAATACGAACATCAAAAACTCACTAGG (double strand) [adeA promoter region (243 bp)]” the value was “no binding”.

Source of the values: article PMC4498774.
